Assay results reported in the RNAGym collection of RNA variant scans (doi:10.1093/nar/gkz1192).

B1: CPEB3 Ribozyme (parent)
chain: UAACAGGGGGCCACAGCAGAAGCGUUCACGUCGCAGCCCCUGUCAGAUUCUGGUGAAUCUGCGAAUUCUGCUGUAUAUCUC

Variants of: B1
Experiment: self-cleavage, relative activity (ratio to wild type); higher = more cleavage; in vitro, sequencing
Procedure, shortened: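 CPEB3 self-cleaving ribozyme mutant libraries were made by rounds of error-prone PCR, barcoded, and transcribed in vitro with T7 RNA polymerase for 5 hours at 37°C. Cleavage occurred during transcription and a 15 min DNase I step before EDTA stop. RNAs were reverse transcribed with template switching and Illumina-sequenced, with DNA sequencing mapping barcodes to variants. Relative activity is the variant's cleaved/total read fraction divided by wild type's (minimum 5 reads), averaged across three batches.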

**Q.** With UAACAGGGGGCCACAGCAGAAGCGUUCACGUCGCAGCCCCUGUCAGAUUCUGGUGAAUCUGCGAACUCUGCUGUAUAUUUC [U66C C79U] as the variant, how does the self-cleavage read?
**A.** 0.39

**Q.** Which self-cleavage does the source give for UAACAGGGGGCCACAGCAGAAGCGUUCACGUCGCAGCCCCUGUCAGAUUCUGGUGAAUCUGCGAACUCUGCUGUAUAUAUC [U66C C79A] here?
**A.** 0.38

**Q.** For UAACAGGGGGCCACAGCAGAAGCGUUCACGUCGCAGCCCCUGUCAGAUUCUGGUGAAUCUGCGAACUCUGCUGUCUAUCUC [U66C A75C], which self-cleavage is on record?
**A.** 0.54

**Q.** Which self-cleavage does the source give for UAACAGGGGGCCACAGCAGAAGCGUUCACGUCGCAGCCCCUGUCAGAUUCUGGUGAAUCUGCGAACUCUGCUGUGUAUCUC [U66C A75G] here?
**A.** 0.28

**Q.** For UAACAGGGGGCCACAGCAGAAGCGUUCACGUCGCAGCCCCUGUCAGAUUCUGGUGAAUCUGCGAACUCUGCUGUUUAUCUC [U66C A75U], which self-cleavage is on record?
**A.** 0.4

**Q.** For UAACAGGGGGCCACAGCAGAAGCGUUCACGUCGCAGCCCCUGUCAGAUUCUGGUGAAUCUGCGAACUCUGAUGUAUAUCUC [U66C C71A], which self-cleavage is on record?
**A.** 0.25

**Q.** For UAACAGGGGGCCACAGCAGAAGCGUUCACGUCGCAGCCCCUGUCAGAUUCUGGUGAAUCUGCGAACUCUGUUGUAUAUCUC [U66C C71U], which self-cleavage is on record?
**A.** 0.43

**Q.** With UAACAGGGGGCCACAGCAGAAGCGUUCACGUCGCAGCCCCUGUCAGAUUCUGGUGAAUCUGCGAAAUCCGCUGUAUAUCUC [U66A U69C] as the variant, how does the self-cleavage read?
**A.** 0.26

**Q.** Which self-cleavage does the source give for UAACAGGGGGCCACAGCAGAAGCGUUCACGUCGCAGCCCCUGUCAGAUUCUGGUGAAUCUGCGAAAUCAGCUGUAUAUCUC [U66A U69A] here?
**A.** 0.32

**Q.** Which self-cleavage does the source give for UAACAGGGGGCCACAGCAGAAGCGUUCACGUCGCAGCCCCUGUCAGAUUCUGGUGAAUCUGCGAAAUCUGCUGUAUACCUC [U66A U78C] here?
**A.** 0.31

**Q.** With UAACAGGGGGCCACAGCAGAAGCGUUCACGUCGCAGCCCCUGUCAGAUUCUGGUGAAUCUGCGAAAUCUGCUGUAUAACUC [U66A U78A] as the variant, how does the self-cleavage read?
**A.** 0.38

**Q.** For UAACAGGGGGCCACAGCAGAAGCGUUCACGUCGCAGCCCCUGUCAGAUUCUGGUGAAUCUGCGAUUCCUGCUGUAUAUCUC [A65U U67C], which self-cleavage is on record?
**A.** 0.28

**Q.** For UAACAGGGGGCCACAGCAGAAGCGUUCACGUCGCAGCCCCUGUCAGAUUCUGGUGAAUCUGCGAUUACUGCUGUAUAUCUC [A65U U67A], which self-cleavage is on record?
**A.** 0.02

**Q.** For UAACAGGGGGCCACAGCAGAAGCGUUCACGUCGCAGCCCCUGUCAGAUUCUGGUGAAUCUGCGAACUCUACUGUAUAUCUC [U66C G70A], which self-cleavage is on record?
**A.** 0.35

**Q.** Which self-cleavage does the source give for UAACAGGGGGCCACAGCAGAAGCGUUCACGUCGCAGCCCCUGUCAGAUUCUGGUGAAUCUGCGAACUCUUCUGUAUAUCUC [U66C G70U] here?
**A.** 0.22

**Q.** With UAACAGGGGGCCACAGCAGAAGCGUUCACGUCGCAGCCCCUGUCAGAUUCUGGUGAAUCUGCGAUUUCUGCGGUAUAUCUC [A65U U72G] as the variant, how does the self-cleavage read?
**A.** 0.33

**Q.** With UAACAGGGGGCCACAGCAGAAGCGUUCACGUCGCAGCCCCUGUCAGAUUCUGGUGAAUCUGCGAUUUCUGCCGUAUAUCUC [A65U U72C] as the variant, how does the self-cleavage read?
**A.** 0.36

**Q.** Which self-cleavage does the source give for UAACAGGGGGCCACAGCAGAAGCGUUCACGUCGCAGCCCCUGUCAGAUUCUGGUGAAUCUGCGAUUUCUGCAGUAUAUCUC [A65U U72A] here?
**A.** 0.23

**Q.** For UAACAGGGGGCCACAGCAGAAGCGUUCACGUCGCAGCCCCUGUCAGAUUCUGGUGAAUCUGCGAAAUCUGCUGUACAUCUC [U66A U76C], which self-cleavage is on record?
**A.** 0.57

**Q.** Which self-cleavage does the source give for UAACAGGGGGCCACAGCAGAAGCGUUCACGUCGCAGCCCCUGUCAGAUUCUGGUGAAUCUGCGAGUUCUGCUGUAUAUCAC [A65G U80A] here?
**A.** 0.53

**Q.** For UAACAGGGGGCCACAGCAGAAGCGUUCACGUCGCAGCCCCUGUCAGAUUCUGGUGAAUCUGCGAGUUCUGCUGUAUAUCGC [A65G U80G], which self-cleavage is on record?
**A.** 0.66

**Q.** For UAACAGGGGGCCACAGCAGAAGCGUUCACGUCGCAGCCCCUGUCAGAUUCUGGUGAAUCUGCGAGUUCUGCUGUAUAUCCC [A65G U80C], which self-cleavage is on record?
**A.** 0.59

**Q.** Which self-cleavage does the source give for UAACAGGGGGCCACAGCAGAAGCGUUCACGUCGCAGCCCCUGUCAGAUUCUGGUGAAUCUGCGAUUUCUGCUGUAUAUCUC [A65U] here?
**A.** 0.33

**Q.** With UAACAGGGGGCCACAGCAGAAGCGUUCACGUCGCAGCCCCUGUCAGAUUCUGGUGAAUCUGCGAAAACUGCUGUAUAUCUC [U66A U67A] as the variant, how does the self-cleavage read?
**A.** 0.26

**Q.** With UAACAGGGGGCCACAGCAGAAGCGUUCACGUCGCAGCCCCUGUCAGAUUCUGGUGAAUCUGCGAAACCUGCUGUAUAUCUC [U66A U67C] as the variant, how does the self-cleavage read?
**A.** 0.33

**Q.** Which self-cleavage does the source give for UAACAGGGGGCCACAGCAGAAGCGUUCACGUCGCAGCCCCUGUCAGAUUCUGGUGAAUCUGCGAUCUCUGCUGUAUAUCUC [A65U U66C] here?
**A.** 0.38

**Q.** For UAACAGGGGGCCACAGCAGAAGCGUUCACGUCGCAGCCCCUGUCAGAUUCUGGUGAAUCUGCGAAAUCUGCUAUAUAUCUC [U66A G73A], which self-cleavage is on record?
**A.** 1.04

**Q.** For UAACAGGGGGCCACAGCAGAAGCGUUCACGUCGCAGCCCCUGUCAGAUUCUGGUGAAUCUGCGAUUUCUGCUGUAUAUCUA [A65U C81A], which self-cleavage is on record?
**A.** 0.43

**Q.** With UAACAGGGGGCCACAGCAGAAGCGUUCACGUCGCAGCCCCUGUCAGAUUCUGGUGAAUCUGCGAUUUCUGCUGAAUAUCUC [A65U U74A] as the variant, how does the self-cleavage read?
**A.** 0.44

**Q.** For UAACAGGGGGCCACAGCAGAAGCGUUCACGUCGCAGCCCCUGUCAGAUUCUGGUGAAUCUGCGAUUUCUGCUGUAUUUCUC [A65U A77U], which self-cleavage is on record?
**A.** 0.25

**Q.** With UAACAGGGGGCCACAGCAGAAGCGUUCACGUCGCAGCCCCUGUCAGAUUCUGGUGAAUCUGCGAUUUCUGCUGUAUGUCUC [A65U A77G] as the variant, how does the self-cleavage read?
**A.** 0.2

**Q.** For UAACAGGGGGCCACAGCAGAAGCGUUCACGUCGCAGCCCCUGUCAGAUUCUGGUGAAUCUGCGAAAUCUGCCGUAUAUCUC [U66A U72C], which self-cleavage is on record?
**A.** 0.59

**Q.** For UAACAGGGGGCCACAGCAGAAGCGUUCACGUCGCAGCCCCUGUCAGAUUCUGGUGAAUCUGCGAAAUCUGCAGUAUAUCUC [U66A U72A], which self-cleavage is on record?
**A.** 0.58

**Q.** For UAACAGGGGGCCACAGCAGAAGCGUUCACGUCGCAGCCCCUGUCAGAUUCUGGUGAAUCUGCGAACUCUGCUGUAUUUCUC [U66C A77U], which self-cleavage is on record?
**A.** 0.34
